Assay [1] deals with T1, Bet v 1 (isoform not stated for the experiment) (birch, UniProt P15494).
T1 construct: also called immobilized Bet v 1
The experiment in a line: ELISA; inhibition ELISA: binding of scFv-Fcε to immobilized Bet v 1 in the presence of the identified peptides in soluble form. The note with it: one partner purified. (In general: In an ELISA, binding on a coated surface is turned into a signal by an enzyme label.)

In the next assay the target is T2, Recombinant Aln g 1.0101 (Alnus glutinosa, isoform Aln g 1.0101, UniProt P38948).
T2 construct: By its allergen name from Alnus glutinosa (alder); source: bought: Biomay (Vienna, Austria), recombinant
T2 sequence (P38948 whole entry, looked up, canonical isoform): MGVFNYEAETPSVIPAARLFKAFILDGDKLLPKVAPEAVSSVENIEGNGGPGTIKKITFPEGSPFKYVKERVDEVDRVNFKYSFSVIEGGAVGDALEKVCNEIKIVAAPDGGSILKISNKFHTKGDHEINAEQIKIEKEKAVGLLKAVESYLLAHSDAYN
The experiment in a line: ELISA; allergens coated at 5 μg/mL in PBS; scFv-Fcε from HEK293 supernatant detected with HRP anti-IgE antiserum; duplicates. To be noted: one partner purified.

B1: M0418 scFv-Fcε fusion protein (Fc fusion, human)
VH: QVQLVQSGAEVKKPGESLKISCKGSEYSFPNYWIAWVRQMPGKGLEWMGMIYPGDSDTRYSPSFQGQVNISADKSSRTAFLEWSSLKASDSATYFCARLGGQLWNSYYYYYYMDVWGKGTTVTVSS
VL: SYELTQPPSASGTPGQRVTISCSGSSSNIGGNTVNWYQQVPGTAPRLLIYKNNQRPSGVPDRFSGSKSGTSASLAISGLRSEDEADYYCEAWDGGLRGGVFGGGTKLTVL
notes: as the VH of m14; (Gly4Ser)3 linker as told for the M0418 scFv construct, written out from the printed formula; as the VL of m14; also called the M0418 construct; IgE clone M0418; source: HEK293, transfected, in filtered supernatant; not shown: Fc (human IgE, second, third and fourth constant domains, CHε2-4), C-terminal, kept
As to B1, the binding result in assay [1] is “binds”; with Recombinant Aln g 1.0101, “no binding”.

B2: B13 scFv-Fcε fusion protein (Fc fusion)
VH: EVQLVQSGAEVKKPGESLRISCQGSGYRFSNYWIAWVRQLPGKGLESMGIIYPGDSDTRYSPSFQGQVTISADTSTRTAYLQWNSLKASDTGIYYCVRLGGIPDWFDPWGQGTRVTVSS
VL: SYELTQPPSVSGSPGQSVTISCTGTSSDVGGYNLVSWYQQHPGKAPRLMIYEDTKRPSGVSHRFSGSKSGNTASLTISGLQAEDEADYYCYSYATGRPSRLFGGGTKLTVL
notes: as the VH of m12; as the VL of m12; also called B13 scFv-CHε2-4 fusion protein; source: HEK293, transfected, in filtered supernatant; not shown: Fc (human IgE, second, third and fourth constant domains, CHε2-4), C-terminal, kept
As for B2, the binding result in assay [1] was “binds”.

B3: B14 scFv-Fcε fusion protein (Fc fusion, human)
VH: EVQLVQSGAEVKKPGESLKISCKGSEYSFPNYWIAWVRQMPGKGLEWMGMIYPGDSDTRYSPSFQGQVNISADKSSRTAFLEWSSLKASDSATYFCARLGGQLWNSYYYYYMDVWGKGTTVTVSS
VL: QSVLTQPPSVSVSPGQTARITCSGDKLGNKYAAWYQQKPGQSPVLVIYQDSKRPSGIPERFSGSNSGNTATLTISGTQAMDEADYYCQAWDSSTFYVFGTGTKLTVL
notes: as the VH of m13; as the VL of m13; also called B14 scFv-CHε2-4 fusion protein; source: HEK293, transfected, in filtered supernatant; not shown: Fc (human IgE, second, third and fourth constant domains, CHε2-4), C-terminal, kept
As for B3, in assay [1], the binding result is recorded as “binds”.

Values taken from PMC4215112 (Clinical and Experimental Allergy, 2014).
